Measured values published in patent publication US20260209386A1 (MYTHIC THERAPEUTICS, published 2026).

T1: Human PTK7 (human, UniProt Q13308 31-1070)
T1 sequence: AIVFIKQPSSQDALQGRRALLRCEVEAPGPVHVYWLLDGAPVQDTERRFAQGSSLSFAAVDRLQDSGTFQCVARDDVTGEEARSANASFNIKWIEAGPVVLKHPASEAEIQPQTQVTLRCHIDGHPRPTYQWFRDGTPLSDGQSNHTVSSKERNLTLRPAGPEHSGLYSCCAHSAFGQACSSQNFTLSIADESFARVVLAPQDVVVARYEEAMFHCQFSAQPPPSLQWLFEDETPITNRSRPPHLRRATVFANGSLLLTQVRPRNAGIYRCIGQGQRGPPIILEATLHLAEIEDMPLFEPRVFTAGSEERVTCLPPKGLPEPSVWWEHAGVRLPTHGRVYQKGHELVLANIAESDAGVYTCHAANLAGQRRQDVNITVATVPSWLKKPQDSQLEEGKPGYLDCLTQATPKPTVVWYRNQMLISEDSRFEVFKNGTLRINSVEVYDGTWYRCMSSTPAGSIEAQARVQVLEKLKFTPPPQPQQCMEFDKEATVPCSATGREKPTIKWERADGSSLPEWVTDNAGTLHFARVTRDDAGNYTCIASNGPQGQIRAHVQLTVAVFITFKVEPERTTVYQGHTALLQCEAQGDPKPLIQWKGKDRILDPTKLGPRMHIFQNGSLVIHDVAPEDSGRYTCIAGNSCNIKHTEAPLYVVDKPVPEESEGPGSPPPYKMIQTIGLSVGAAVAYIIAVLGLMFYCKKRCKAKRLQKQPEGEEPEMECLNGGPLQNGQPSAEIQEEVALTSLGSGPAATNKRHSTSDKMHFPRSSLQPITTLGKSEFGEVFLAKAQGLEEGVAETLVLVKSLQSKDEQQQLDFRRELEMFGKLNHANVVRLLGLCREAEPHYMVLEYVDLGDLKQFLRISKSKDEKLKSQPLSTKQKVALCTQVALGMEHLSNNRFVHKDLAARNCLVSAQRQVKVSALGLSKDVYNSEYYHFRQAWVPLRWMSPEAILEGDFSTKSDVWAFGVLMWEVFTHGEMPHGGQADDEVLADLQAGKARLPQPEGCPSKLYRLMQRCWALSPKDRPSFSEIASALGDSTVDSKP

B1: MYT11346 (antibody, V domains shown)
VH: EVQLVESGGGLVQPGGSLRLSCTASGIDLSNYHVIWVRQAPGKGLEWVGIIYTYDTTYYANWAKGRFTISRDTSKNTVYLQMNSLRAEDTAVYFCARSFSDISDLIKLWGQGTLVTVSS
VL: EIVMTQSPSTLSASVGDRVIITCQASQSLYNNKDLAWYQQKPGKAPKLLIYEASKLASGVPSRFSGSGSGAEFTLTISSLQPDDFATYYCLGEFSCGSGDCLAFGQGTKLTVL
B2: MYT11418 (antibody, V domains shown)
VH: EVQLVESGGGLVQPGGSLRLSCTASGIDLSNYAVIWVRQAPGKGLEWVGIIYTYDTTYYANWAKGRFTISRDTSKNTVYLQMNSLRAEDTAVYFCARSFSDISDLIKLWGQGTLVTVSS
VL: EIVMTQSPSTLSASVGDRVIITCQASQSLYNNKDLAWYQQKPGKAPKLLIYAASKLASGVPSRFSGSGSGAEFTLTISSLQPDDFATYYCLGEFSCGSGDCLAFGQGTKLTVL
B3: MYT11326 (antibody, V domains shown)
VH: EVQLVESGGGLVQPGGSLRLSCTASGIDLSRYSMGWVRQAPGKGLEWVGIISYGGSTYYASWAKGRFTISRDTSKNTVYLQMNSLRAEDTAVYFCARVGYPGYSGYGYAFDAFDPWGQGTLVTVSS
VL: EIVMTQSPSTLSASVGDRVIITCQSSKSVYNDNWLSWYQQKPGKAPKLLIYGASTLASGVPSRFSGSGSGAEFTLTISSLQPDDFATYYCAGHYSSSSDNGFGQGTKLTVL
B4: MYT11337 (antibody, V domains shown)
VH: EVQLVESGGGLVQPGGSLRLSCTASGIDLSRYSMGWVRQAPGKGLEWVGIISYGGSTYYASWAKGRFTISRDTSKNTVYLQMNSLRAEDTAVYFCARVGYPGYSGYGYAFDAFDPWGQGTLVTVSS
VL: EIVMTQSPSTLSASVGDRVIITCQSSKSVYNDNWLSWYQQKPGKAPKLLIYGASTLASGVPSRFSGSGSGAEFTLTISSLQPDDFATYYCAGGYSSSSANGFGQGTKLTVL
B5: MYT11327 (antibody, V domains shown)
VH: EVQLVESGGGLVQPGGSLRLSCTASGIDLSRYSMGWVRQAPGKGLEWVGIISYGGSTYYASWAKGRFTISRDTSKNTVYLQMNSLRAEDTAVYFCARVGYPGYSGYGYAFDAFDPWGQGTLVTVSS
VL: EIVMTQSPSTLSASVGDRVIITCQSSKSVYNDNWLSWYQQKPGKAPKLLIYGASTLASGVPSRFSGSGSGAEFTLTISSLQPDDFATYYCAGGHSSSSDNGFGQGTKLTVL
B6: MYT11332 (antibody, V domains shown)
VH: EVQLVESGGGLVQPGGSLRLSCTASGIDLSRYSMGWVRQAPGKGLEWVGIISYGGSTYYASWAKGRFTISRDTSKNTVYLQMNSLRAEDTAVYFCARVGYPGYSGYGYAFDAFDPWGQGTLVTVSS
VL: EIVMTQSPSTLSASVGDRVIITCQSSKSVYNDNWLSWYQQKPGKAPKLLIYGASTLASGVPSRFSGSGSGAEFTLTISSLQPDDFATYYCAGGYSSSSHNGFGQGTKLTVL
B7: MYT11331 (antibody, V domains shown)
VH: EVQLVESGGGLVQPGGSLRLSCTASGIDLSRYSMGWVRQAPGKGLEWVGIISYGGSTYYASWAKGRFTISRDTSKNTVYLQMNSLRAEDTAVYFCARVGYPGYSGYGYAFDAFDPWGQGTLVTVSS
VL: EIVMTQSPSTLSASVGDRVIITCQSSKSVYNDNWLSWYQQKPGKAPKLLIYGASTLASGVPSRFSGSGSGAEFTLTISSLQPDDFATYYCAGGYSSSHDNGFGQGTKLTVL
B8: MYT11328 (antibody, V domains shown)
VH: EVQLVESGGGLVQPGGSLRLSCTASGIDLSRYSMGWVRQAPGKGLEWVGIISYGGSTYYASWAKGRFTISRDTSKNTVYLQMNSLRAEDTAVYFCARVGYPGYSGYGYAFDAFDPWGQGTLVTVSS
VL: EIVMTQSPSTLSASVGDRVIITCQSSKSVYNDNWLSWYQQKPGKAPKLLIYGASTLASGVPSRFSGSGSGAEFTLTISSLQPDDFATYYCAGGYHSSSDNGFGQGTKLTVL

The binders below were run against T1, Human PTK7 (assay: cell-based or functional assay).
For B1, the “Internalization, FOW @ 25 nM (fold over the wildtype, parental antibody)” value was 1.16 fold over parental antibody.
For B2, the “Internalization, FOW @ 25 nM (fold over the wildtype, parental antibody)” value was 1.19 fold over parental antibody.
For B3, the “Internalization, FOW @ 25 nM (fold over the wildtype, parental antibody)” value was 1.29 fold over parental antibody.
With B4 the “Internalization, FOW @ 25 nM (fold over the wildtype, parental antibody)” value was 1.68 fold over parental antibody.
In the case of B5, the “Internalization, FOW @ 25 nM (fold over the wildtype, parental antibody)” value is reported as 1.6 fold over parental antibody.
For B6, the “Internalization, FOW @ 25 nM (fold over the wildtype, parental antibody)” value was 1.77 fold over parental antibody.
B7 was tested, and the “Internalization, FOW @ 25 nM (fold over the wildtype, parental antibody)” value was 1.77 fold over parental antibody.
With B8 the “Internalization, FOW @ 25 nM (fold over the wildtype, parental antibody)” value was 1.99 fold over parental antibody.
